Results on seven molecules are retold here after article PMC2809104, “Crystal Structure and Substrate Specificity of Drosophila 3,4-Dihydroxyphenylalanine Decarboxylase” (PLoS ONE, 2010).

Substitutions are numbered along the chain they refer to.

By Km is commonly meant the concentration of substrate that gives half-maximal velocity. Usually kcat stands for the maximal rate divided by the concentration of active sites. In general, kcat/Km refers to the turnover number divided by the Michaelis constant. Broadly, the stoichiometry N is the number of molecules, sites or subunits per partner or assembly.

The target of series [1] is T1, drDDC (Drosophila melanogaster, UniProt P05031).
T1 construct: gene Ddc; homodimer, PLP holoenzyme; residues 1-475
T1 sequence (P05031 36-510): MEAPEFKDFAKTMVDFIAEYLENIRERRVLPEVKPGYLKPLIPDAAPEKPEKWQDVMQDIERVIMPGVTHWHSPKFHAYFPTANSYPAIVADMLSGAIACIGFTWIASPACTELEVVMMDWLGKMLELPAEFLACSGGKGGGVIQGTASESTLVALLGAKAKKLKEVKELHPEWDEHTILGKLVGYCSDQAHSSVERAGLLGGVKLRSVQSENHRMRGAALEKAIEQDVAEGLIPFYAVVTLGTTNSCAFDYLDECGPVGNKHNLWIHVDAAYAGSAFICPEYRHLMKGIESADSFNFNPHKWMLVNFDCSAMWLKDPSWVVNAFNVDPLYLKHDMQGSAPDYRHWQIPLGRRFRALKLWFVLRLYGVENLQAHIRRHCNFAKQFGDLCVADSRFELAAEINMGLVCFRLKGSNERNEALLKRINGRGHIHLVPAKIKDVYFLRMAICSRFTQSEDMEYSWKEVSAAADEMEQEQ
As to the kind of experiment: X-ray crystal structure, […] Å. The format is binding. The conditions noted are these: covalent internal aldimine (Schiff base) with K302.

For series [2], the target named is T2, drDDC (Drosophila melanogaster, UniProt P05031, H227W/DEL476-510, form not given).
T2 construct: gene Ddc; homodimer, PLP holoenzyme; residues 1-475
T2 sequence (P05031 1-475 isoform P05031-2 H192W): T1 sequence (P05031 36-510) with H192W
Put plainly: HPLC-UV of decarboxylated product, Michaelis-Menten fit. The format is biochemical. The conditions noted are these: 38°C, 40 µM PLP, 150 mM potassium phosphate pH 7.0. The source says: (§1) HPLC-UV of decarboxylated product, Michaelis-Menten fit on drDDC

For series [3], the target named is T3, drDDC (Drosophila melanogaster, UniProt P05031, T117A/DEL476-510, form not given).
T3 construct: gene Ddc; homodimer, PLP holoenzyme; residues 1-475
T3 sequence (P05031 1-475 isoform P05031-2 T82A): T1 sequence (P05031 36-510) with T82A
The series is described as above. The format is biochemical. The conditions noted are these: 38°C, 40 µM PLP, 150 mM potassium phosphate pH 7.0.
Source text: as §1

The target in series [4] is T4, drDDC (Drosophila melanogaster, UniProt P05031, T117S/DEL476-510, form not given).
T4 construct: gene Ddc; homodimer, PLP holoenzyme; residues 1-475
T4 sequence (P05031 1-475 isoform P05031-2 T82S): T1 sequence (P05031 36-510) with T82S
Described as above. The format is biochemical. To be noted: 38°C, 40 µM PLP, 150 mM potassium phosphate pH 7.0.
Source text: as §1

Substrate in series [5]: NC(Cc1cccc(O)c1)C(=O)O
The description is as above. The format is biochemical, Drosophila melanogaster. The conditions noted are these: 38°C, 40 µM PLP, 150 mM potassium phosphate pH 7.0, racemic DL substrate.
Source text: as §1

Substrate in series [6]: NC(Cc1ccccc1O)C(=O)O
The description is as above. The format is biochemical, Drosophila melanogaster. The conditions noted are these: 38°C, 40 µM PLP, 150 mM potassium phosphate pH 7.0, racemic DL substrate.
Source text: as §1

Substrate in series [7]: N[C@@H](Cc1ccc(O)c(O)c1)C(=O)O
The description is as above. The conditions noted are these: 38°C, 40 µM PLP, 150 mM potassium phosphate pH 7.0. The format is biochemical, Drosophila melanogaster.
Source text: as §1

Substrate in series [8]: N[C@@H](Cc1c[nH]c2ccc(O)cc12)C(=O)O
Described as above. To be noted: 38°C, 40 µM PLP, 150 mM potassium phosphate pH 7.0. The format is biochemical, Drosophila melanogaster.
Source text: as §1

Series [9] deals with the molecule itself. As to the kind of experiment: crystal structure; hanging-drop vapor diffusion; 15% PEG 4000, 20% glycerol, 200 mM CaCl2, 100 mM cacodylic acid pH 6.5; molecular replacement with pig DDC (1js3); two molecules in the asymmetric unit.

With `Cc1ncc(COP(=O)(O)O)c(C=O)c1O` [PLP], the “X-ray crystal structure, 1.75 Å” value in series [1] is listed as “The cofactor PLP binds to K302 through a Schiff base linkage”.
In the case of `N[C@@H](Cc1c[nH]c2ccc(O)cc12)C(=O)O` [5-HTP], the Michaelis-Menten constant (Km) in series [2] stood at 1.1 ± 0.1 mM; in series [3] it was 3.5 ± 0.5 mM; in series [4], 0.6 ± 0.1 mM.
With `N[C@@H](Cc1ccc(O)c(O)c1)C(=O)O` [DOPA], the Km was 4.4 ± 0.8 mM in [2], 5.6 ± 1 mM in series [3] and 4.5 ± 0.9 mM in [4].
Take `NC(Cc1ccccc1O)C(=O)O` (racemic) [o-tyr, DL-o-tyrosine]: the Km in [3] (racemic DL substrate) came to 4.9 ± 1.5 mM.
Turning to `NC(Cc1cccc(O)c1)C(=O)O` (racemic) [m-tyr, DL-m-tyrosine], the Km in [2] (racemic DL substrate) stood at 2.6 ± 1.1 mM; in [3] (racemic DL substrate), 13.3 ± 4.5 mM; in [4] (racemic DL substrate) it was 11.4 ± 2.2 mM.

B1: drDDC (Drosophila melanogaster) (protein)
chain: T1 sequence (P05031 36-510)
notes: homodimer, PLP holoenzyme; residues 1-475
As to B1, the Km in series [5] amounted to 2.3 ± 1.2 mM; in [6], 1.1 ± 0.3 mM; in series [7], 2.2 ± 0.3 mM; in series [8] it was 0.4 ± 0.04 mM. Moreover, the kcat in series [5] worked out at 3.56 ± 0.673 s⁻¹; in series [6] it was 1.85 ± 0.133 s⁻¹; in series [7], 4.7 ± 0.0267 s⁻¹; in [8], 1.05 ± 0.0233 s⁻¹. Besides, the kcat/Km in series [5] was 1550 M⁻¹ s⁻¹; in series [6] it was 1680 M⁻¹ s⁻¹; in series [7], 2140 M⁻¹ s⁻¹; in series [8], 2620 M⁻¹ s⁻¹.

B2: Drosophila melanogaster 3,4-dihydroxyphenylalanine decarboxylase, wild type (enzyme, UniProt P05031-2 1-475, looked up)
chain: T1 sequence (P05031 36-510)
modifications: lysine-pyridoxal-5-phosphate (LLP): PLP bound to K302 through a Schiff base (internal aldimine)
notes: the forward primer begins at ATG GAG GCG CCG GAG TTC (MEAPEF); also called drDDC; drDDC WT; source: Escherichia coli DE3, purified (chitin beads, DEAE-Sepharose, Mono-Q, gel filtration)
Turning to B2, the “stoichiometry N” value in [9] worked out at 2.
